Measured values from PMC10944878, “Formation of HopQ1:14-3-3 complex in the host cytoplasm modulates nuclear import rate of Pseudomonas syringae effector in Nicotiana benthamiana cells” (Frontiers in Plant Science, 2024).

Assays:
[1] = target: the molecule itself; assay: SEC-MALS; phosphorylated HopQ1 mixed with Nt14-3-3a at a 1:2 mass ratio, 2 h at 4°C; Superdex 200 10/300GL, 100 mM Tris-HCl pH 8.0, 150 mM NaCl, 5 mM DTT
[2] = target: T1, HopQ1-6xHis, in vitro phosphorylated by AtCPK3 (Pseudomonas syringae pv. phaseolicola …, UniProt Q48BD8 1-447, in vitro phosphorylated by AtCPK3; phosphorylated residues of this sample not given); assay: as above; details: both partners purified
T1 construct: HopQ1 (Hrp outer protein Q), type three effector of Pseudomonas syringae pv. phaseolicola 1448A, GenBank AAZ37975.1; also called phosphorylated HopQ1; recombinant HopQ1; source: phosphorylated in vitro by GST-AtCPK3, then ion-exchange and size-exclusion chromatography
T1 sequence: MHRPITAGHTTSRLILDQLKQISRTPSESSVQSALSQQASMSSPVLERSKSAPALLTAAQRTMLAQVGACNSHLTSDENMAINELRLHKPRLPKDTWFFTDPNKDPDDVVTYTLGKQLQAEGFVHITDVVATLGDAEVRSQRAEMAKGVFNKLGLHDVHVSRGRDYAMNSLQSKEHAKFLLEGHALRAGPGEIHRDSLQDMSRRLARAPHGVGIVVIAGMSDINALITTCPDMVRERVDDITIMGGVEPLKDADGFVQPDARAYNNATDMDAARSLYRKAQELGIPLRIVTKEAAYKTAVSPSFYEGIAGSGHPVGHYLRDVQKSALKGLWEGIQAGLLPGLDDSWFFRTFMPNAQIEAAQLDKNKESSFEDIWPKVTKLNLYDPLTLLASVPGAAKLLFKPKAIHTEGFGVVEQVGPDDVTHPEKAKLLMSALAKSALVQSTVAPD

B1: Nt14-3-3a protein tagged with Strep-tag II (natural protein, UniProt Q75ZE5 1-255, looked up)
chain: MASPREENVYLAKLAEQAERYEEMVEFMEKVVGAGDDELTVEERNLLSVAYKNVIGARRASWRIISSIEQKEESRGNEDHVASIKTYRSKIESELTSICNGILKLLDSKLIGTAATGDSKVFYLKMKGDYYRYLAEFKTGAERKEAAENTLSAYKSAQDIANVELAPTHPIRLGLALNFSVFYYEILNSPDRACNLAKQAFDEAIAELDTLGEESYKDSTLIMQLLRDNLTLWTSDMQDDGTDEIKEPSKAEEQQ
notes: 14-3-3a protein, Nt14-3-3a, GenBank BAD12168.1; also called 14-3-3 dimer; not shown: Strep-tag II, C-terminal, kept
stoichiometry N [1]: 2
stoichiometry N [2]: 2 14-3-3a per HopQ1
